Source: patent US20250019435A1 (ALBERT EINSTEIN COLLEGE OF MEDICINE, published 2025)

B1: Y298F (receptor)
receptor chain: HEGGQDKPLLSAWPSAVVPRGGHVTLLCRSRLGFTIFSLYKEDGVPVPELYNKIFWKSILMGPVTPAHAGTYRCRGSHPRSPIEWSAPSNPLVIVVTGLFGKPSLSAQPGPTVRTGENVTLSCSSRSSFDMYHLSREGRAHEPRLPAVPSVNGTFQADFPLGPATHGGTYTCFGSLHDSPYEWSDPSDPLLVSVTGNSSSSSSSPTEPSSKTGIRRHLHILIGTSVAIILFIILFFFLLHCCCSNKKNAAVMDQEPAGDRTVNREDSDDQDPQEVTFAQLDHCVFTQTKITSPSQRPKTPPTDTTMYMELPNAKPRSLSPAHKHHSQALRGSSRETTALSQNRVASSHVPAAGI
notes: also called KIR2DL5 Y298F (ITIM mutant) on transduced primary NK cells
B2: anti-KIR2DL5 mAb clone B7B23 (antibody, V domains shown)
VH: QVQLQQSGAELVRPGVSVKISCKGSGYTFTDYTMHWVKQSHAKSLEWIGVISPYYGDASYNQKFKGKATMTVDKSSSTAYMELARLTSEDSAIYYCARGLLRGFAYWGQGTLVTVS
VL: DIVMTQSPSSKDMSVGQKVTMRCKSSKSLLNSSNQKKYLAWYQQKPGQSPKLLVYFASIRESGVPDRFIGSGSGTDFTLTISSVQVEDLADYFCQQHYSTPWTFGGG
notes: also called B7B23 (IgG1, κ)

Tests used:
[1] = molecular target: T1, PVR expressed on transduced cells (PVR-YFP) (UniProt P15151 21-417); experiment: confocal imaging of conjugates of transduced primary NK cells with PVR-YFP/Raji cells
T1 construct: whole, on cells; On NIH 3T3 or Raji cells; also called PVR/3T3; PVR-YFP/3T3; not shown: YFP ('PVR-YFP ... fusion protein')
T1 sequence (looked up): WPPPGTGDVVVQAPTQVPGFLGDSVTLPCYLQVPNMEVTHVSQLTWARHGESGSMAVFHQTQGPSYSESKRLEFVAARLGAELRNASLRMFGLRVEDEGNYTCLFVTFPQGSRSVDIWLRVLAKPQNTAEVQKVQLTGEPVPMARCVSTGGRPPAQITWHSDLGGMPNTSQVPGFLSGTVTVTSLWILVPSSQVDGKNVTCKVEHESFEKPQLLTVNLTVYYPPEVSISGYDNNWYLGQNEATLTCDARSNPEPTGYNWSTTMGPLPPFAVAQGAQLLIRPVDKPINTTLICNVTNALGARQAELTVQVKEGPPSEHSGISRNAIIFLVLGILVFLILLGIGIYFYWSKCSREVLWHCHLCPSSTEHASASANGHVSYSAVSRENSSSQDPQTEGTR
Description: (§1) The KIR2DL5⁻ primary NK cells were transduced with WT KIR2DL5 or the indicated mutants, and then examined for protein expression with F8B30 (open) or mIgG1 (shaded). NC, negative control. Data are representative of 2 independent experiments. (B and C) Transduced primary NK cells were treated with (+) or without (−) pervanadate (VO₄) for 5 minutes. Cell lysates were immunoprecipitated with anti-KIR2DL5 antibodies. Phospho-tyrosine (4G10), SHP-1, SHP-2, and total KIR2DL5 were detected by immunoblots (B). Quantification of p-Tyr, SHP-1, and SHP-2 association with WT or mutant KIR2DL5 in VO₄-treated NK cells (C). WCL, whole-cell lysates. (D) Representative imaging of cell conjugates acquired upon the indicated transduced primary NK and PVR/Raji cell contact followed by staining with anti-KIR2DL5 mAb and DAPI. Scale bars: […]. (E) Lysis of scramble control or PVR^KO A427 (top) and Jurkat (bottom) by WT or mutant KIR2DL5-transduced primary NK cells at the indicated E/T ratios. Data are mean for duplicate measurements and representative of 3 independent experiments with 3 different donors. In A, and B, data are representative of 3 independent experiments. *P<0.05, **P<0.01, ***P<0.001, ****P<0.0001, by 1-way ANOVA (C), or paired Student's t test (D).
NK-Raji conjugation assay. […] Cell mixtures were then loaded onto poly-L-lysine-precoated slides and fixed with 4% formaldehyde at RT for 15 minutes. After blocking with 5% normal goat serum at RT for 1 hour, cells were stained with 20 µg/mL anti-KIR2DL5 antibodies (a mixture of 8 homemade clones) at 4° C. overnight and then with goat anti-mIgG (H+L) Alexa Flour 647 (Invitrogen) at RT for 2 hours. The cells were permeabilized by 0.1% Triton X-100 at RT for 15 minutes and stained with Alexa Flour Plus 405 Phalloidin (Life Technologies) for 1 hour at RT. The slides were then mounted by Gold Antifade Mountant without DAPI (Life Technologies). The mean pixel intensity of synapse and non-synapse was respectively measured and statistically analyzed. Images were acquired by Leica SP8 confocal microscope and processed by ImageJ (NIH).

SHP-2 = molecular target: T2, SHP-2 (human, UniProt Q06124 2-593); experiment: co-immunoprecipitation with anti-KIR2DL5 from transduced primary NK cells with or without pervanadate, immunoblot
T2 sequence (looked up): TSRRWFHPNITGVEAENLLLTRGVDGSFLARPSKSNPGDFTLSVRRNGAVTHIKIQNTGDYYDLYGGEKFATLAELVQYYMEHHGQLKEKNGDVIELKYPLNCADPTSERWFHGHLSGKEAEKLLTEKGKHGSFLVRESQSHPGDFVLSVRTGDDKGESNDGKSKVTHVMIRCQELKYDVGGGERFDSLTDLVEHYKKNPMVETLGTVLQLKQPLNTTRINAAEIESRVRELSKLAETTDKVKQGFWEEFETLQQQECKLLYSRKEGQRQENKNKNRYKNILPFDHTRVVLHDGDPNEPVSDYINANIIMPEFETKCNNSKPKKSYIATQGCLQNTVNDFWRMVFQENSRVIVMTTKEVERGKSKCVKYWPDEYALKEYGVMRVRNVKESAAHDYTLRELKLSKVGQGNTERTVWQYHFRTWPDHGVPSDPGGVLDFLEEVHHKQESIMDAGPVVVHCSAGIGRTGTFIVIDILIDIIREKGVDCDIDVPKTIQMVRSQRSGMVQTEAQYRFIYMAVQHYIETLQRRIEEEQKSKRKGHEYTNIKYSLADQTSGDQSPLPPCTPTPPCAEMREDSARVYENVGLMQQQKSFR
Description: as §1, with “FIG. 12A-12E: KIR2DL5 ITIM and ITSM mediated NK cell inhibition and suppressed downstream signaling. (A) Tyrosine (Y) in ITIM and ITSM of KIR2DL5 was mutated to phenylalanine (F). The” for “The”
Coimmunoprecipitation and immunoblotting. NK92 cells or primary NK cells pretreated with or without 1 mM pervanadate (New England BioLabs) were lysed in Pierce immunoprecipitation lysis buffer supplemented with protease and phosphatase inhibitor cocktail (Thermo Fisher Scientific). Proteins from whole-cell lysis were further incubated with anti-KIR2DL5 antibodies and Dynabeads protein G (Thermo Fisher Scientific) for further immunoprecipitation. […]

[2] = molecular target: T3, KIR2DL5-Ig fusion protein (KIR2DL5 extracellular domain fused to human IgG1 Fc) (human, UniProt Q8N109 22-240); experiment: BLI, Octet RED96; KIR2DL5-Ig captured on anti-human Fc biosensors, mAb in solution; global 1:1 fit
T3 construct: A D0-only fusion (H22-A128) also exists; also called KIR2DL5-human Ig fusion protein; KIR2DL5 DO-D2-Ig; not shown: human IgG1 Fc tag
Description: Biolayer interferometry. The affinities of anti-KIR2DL5 mAbs were analyzed by biolayer interferometry using an Octet RED96 system (ForteBio, Pall LLC). Briefly, anti-human Fc capture biosensors (ForteBio, Pall LLC) were preloaded with KIR2DL5-Ig and then dipped into a solution containing mAb at 2-fold serial dilutions (from 200 to 1.5 μg/mL). Data were analyzed using Forte Pall (Port Washington, New York, USA) software 9.0. The global data fitting to a 1:1 binding model was used to estimate values for the Kₒₙ (association rate constant), Koff (dissociation rate constant), and KD (equilibrium dissociation constant).

[3] = molecular target: T4, D2-deleted KIR2DL5 expressed on 3T3 cells (human, UniProt Q8N109 22-375); experiment: flow cytometry, transduced 3T3 cells
T4 construct: also called KIR2DL5 dD2
Description: (§2) FIG. 15A-15E: Characterization of anti-KIR2DL5 specific monoclonal antibodies. (Related to FIGS. 8A-8D). (A) The protein sequence of KIR2DL5. The extracellular domain of KIR2DL5 was composed of tandem DO-D2 domains. The cytoplasmic tail of KIR2DL5 contained an immunoreceptor tyrosine-based inhibition motif (ITIM) and immunoreceptor tyrosine-based switch motif (ITSM). Domains were predicted and annotated based on UniProtKB (Q8N109). (B) The specificity of anti-KIR2DL5 mAbs. 3T3 cells transduced with indicated KIR family members were stained with 5 μg/ml of indicated anti-KIR2DL5 mAbs (open) or mIgG1 (shaded). (C, D) The affinity of anti-KIR2DL5 mAbs. C: Kinetic binding curves for F8B30 and B19C11. D: Data were acquired from kinetic binding curves detected by the Octet Red96 BLI instrument for indicated clones. (E) 3T3 cells transduced with DO-deleted (KIR2DL5 dD0) or D2-deleted KIR2DL5 (KIR2DL5 dD2) were stained with 5 μg/ml of indicated anti-KIR2DL5 mAbs. In B-E, data are representative of three independent experiments.

[4] = molecular target: T5, D0-deleted KIR2DL5 expressed on 3T3 cells (human, UniProt Q8N109 119-375); experiment: flow cytometry, transduced 3T3 cells
T5 construct: the signal peptide 1-21 is left out; also called KIR2DL5 dD0; DO-deleted KIR2DL5
Description: as §2

Binder | binding result [1] | binding result (SHP-2) | Kd [2] [pM] | koff [2] [s⁻¹] | kon [2] [M⁻¹ s⁻¹] | binding result [3] | binding result [4]
B1 | binds | no binding | – | – | – | – | –
B2 | – | – | 41.3 | 6.96e-05 | 1.69e+06 | no binding (tested: 5 µg/ml) | no binding (tested: 5 µg/ml)
